Test [1] concerns the target ST6Gal-I cysteine mutant C24S (UniProt P15907). Kind of test: FRET in cells (homomer assembly). Particulars: n = 3, 15,000 cells each; parent: est. 100; read off a plot.
For test [2], the target named is β1,4-galactosyltransferase B4GalT-I (UniProt P15291). Kind of test: FRET in cells (heteromer assembly). As to conditions: n = 3, 15,000 cells each; parent: est. 100; read off a plot.
In test [3] the target is T1, ST6Gal-I cysteine mutant C406A, P15907.
T1 chain: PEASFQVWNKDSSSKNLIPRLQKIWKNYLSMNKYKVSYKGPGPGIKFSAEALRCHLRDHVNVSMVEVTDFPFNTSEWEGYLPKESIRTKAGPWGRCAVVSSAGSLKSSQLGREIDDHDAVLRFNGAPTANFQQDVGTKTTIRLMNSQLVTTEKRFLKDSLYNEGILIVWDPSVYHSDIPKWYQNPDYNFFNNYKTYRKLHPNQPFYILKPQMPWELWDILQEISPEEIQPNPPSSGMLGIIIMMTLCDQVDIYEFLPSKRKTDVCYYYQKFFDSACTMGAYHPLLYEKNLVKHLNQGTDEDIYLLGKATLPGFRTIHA
Kind of test: FRET in cells (homomer assembly). As to conditions: chain shown with the change; n = 3, 15,000 cells each; parent: est. 100; read off a plot.

For test [4], the target named is T2, β1,4-galactosyltransferase B4GalT-I, P15291.
T2 chain: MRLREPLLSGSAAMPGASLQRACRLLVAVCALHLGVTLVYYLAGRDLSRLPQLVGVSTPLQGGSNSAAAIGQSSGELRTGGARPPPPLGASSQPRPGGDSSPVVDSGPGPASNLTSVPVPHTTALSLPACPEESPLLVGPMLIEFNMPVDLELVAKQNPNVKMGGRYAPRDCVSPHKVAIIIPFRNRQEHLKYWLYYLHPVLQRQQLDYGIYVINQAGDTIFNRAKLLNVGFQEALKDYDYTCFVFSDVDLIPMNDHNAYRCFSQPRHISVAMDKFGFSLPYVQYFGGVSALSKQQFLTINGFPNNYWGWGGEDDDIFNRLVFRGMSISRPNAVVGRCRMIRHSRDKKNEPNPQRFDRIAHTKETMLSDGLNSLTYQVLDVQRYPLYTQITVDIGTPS
Kind of test: FRET in cells (heteromer assembly). Particulars: chain shown with the change; n = 3, 15,000 cells each; parent: est. 100; read off a plot.

Test [5] addresses T3, ST6Gal-I cysteine mutant C353A, P15907.
T3 chain: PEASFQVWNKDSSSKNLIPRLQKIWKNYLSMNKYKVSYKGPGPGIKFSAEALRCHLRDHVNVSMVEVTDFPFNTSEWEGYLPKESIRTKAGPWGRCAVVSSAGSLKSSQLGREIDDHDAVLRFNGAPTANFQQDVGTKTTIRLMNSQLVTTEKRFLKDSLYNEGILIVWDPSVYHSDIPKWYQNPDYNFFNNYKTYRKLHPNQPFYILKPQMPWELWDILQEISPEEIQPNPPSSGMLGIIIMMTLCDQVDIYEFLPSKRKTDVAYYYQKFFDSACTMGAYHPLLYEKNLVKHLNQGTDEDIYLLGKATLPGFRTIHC
Kind of test: FRET in cells (homomer assembly). Particulars: chain shown with the change; n = 3, 15,000 cells each; parent: est. 100; read off a plot.

For the molecule “α-2,6-sialyltransferase ST6Gal-I, wild type (from UniProt P15907) C24S”, the results for the percent of parent (% of WT control) in test [1] and in test [2] were 70 and 97, respectively.

B1: α-2,6-sialyltransferase ST6Gal-I, wild type, P15907 C406A (protein)
chain: PEASFQVWNKDSSSKNLIPRLQKIWKNYLSMNKYKVSYKGPGPGIKFSAEALRCHLRDHVNVSMVEVTDFPFNTSEWEGYLPKESIRTKAGPWGRCAVVSSAGSLKSSQLGREIDDHDAVLRFNGAPTANFQQDVGTKTTIRLMNSQLVTTEKRFLKDSLYNEGILIVWDPSVYHSDIPKWYQNPDYNFFNNYKTYRKLHPNQPFYILKPQMPWELWDILQEISPEEIQPNPPSSGMLGIIIMMTLCDQVDIYEFLPSKRKTDVCYYYQKFFDSACTMGAYHPLLYEKNLVKHLNQGTDEDIYLLGKATLPGFRTIHA
Take B1: the figures for the percent of parent (% of WT control) in test [3] and in test [4] were 60 and 84, respectively.

B2: α-2,6-sialyltransferase ST6Gal-I, wild type, P15907 C353A (protein)
chain: PEASFQVWNKDSSSKNLIPRLQKIWKNYLSMNKYKVSYKGPGPGIKFSAEALRCHLRDHVNVSMVEVTDFPFNTSEWEGYLPKESIRTKAGPWGRCAVVSSAGSLKSSQLGREIDDHDAVLRFNGAPTANFQQDVGTKTTIRLMNSQLVTTEKRFLKDSLYNEGILIVWDPSVYHSDIPKWYQNPDYNFFNNYKTYRKLHPNQPFYILKPQMPWELWDILQEISPEEIQPNPPSSGMLGIIIMMTLCDQVDIYEFLPSKRKTDVAYYYQKFFDSACTMGAYHPLLYEKNLVKHLNQGTDEDIYLLGKATLPGFRTIHC
As for B2, the percent of parent (% of WT control) in test [5] stood at 83.

The values are drawn from PMC6454061.
